Reference: US7250269B2, “Composition for assaying glycoprotein” (Asahi Kasei Pharma Corporation, priority 2001, dated 2007)

Assays:
[1] = Isoelectric point by focusing electrophoresis; assay type: physicochemical; conditions: 700 V for 40 hours at 4° C.; carrier ampholyte
Experimental: The isoelectric point determined by fractionating the enzyme after applying a constant voltage of 700 V for 40 hours at 4° C. in a focusing electrophoresis using carrier ampholyte, followed by measuring the enzyme activity of each fraction, was pH 4.3±0.2.

[2] = FOD enzyme activity / substrate specificity on glycated lysine; assay type: biochemical
Experimental: (§1) 164 strains of mutant colonies obtained in Example 15 were cultured for 16 hours at 30° C. in 1.5 ml of a 3.7% BHI liquid medium (manufactured by DIFCO Co.) containing 50 μg/ml of ampicillin and 1 mM of IPTG. 1 ml of the culture broth was centrifuged (15,000 G for one minute at 4° C.) to collect cells. 200 μl of 10 mM Tris-HCl buffer solution (pH 8.0) was added to the collected cells. After crushing the cells using an ultrasonic breaker, the mixture was centrifuged (14,000 G for five minutes at 4° C.) to obtain a cell extract as a supernatant.
(§2) The glycated amino acid substrate specificity of FOD-mutated recombinant contained in the cell extract prepared in Example 16 was measured using the above-mentioned FOD enzyme activity measuring method.
(§3) Synthesis of an oligonucleotide having the base sequence of 1-27 in the sequence table Sequence ID No. 7 was consigned to an outside source (BEX Co., Ltd.). The oligonucleotide was subjected to the site-directed mutagenesis using the Mutan-K kit (manufactured by Takara Shuzo Co., Ltd.) according to the manual attached to the kit. The mutant gene obtained was incorporated again into the expression plasmid pTV119N, introduced into Escherichia coli host, and cultured at 30° C. for 16 hours in a 3.7% BHI liquid medium containing 50 μg/ml of ampicillin and 1 mM of IPTG to produce mutant FOD protein.

[3] = FOD enzyme activity / substrate specificity on glycated valine; assay type: biochemical
Experimental: as §1, §2, §3

B1: Reactive 327th amino acid Tryptophan: mutant obtained by replacing the lysine with tryptophan, named FOD-W; plasmid pcmFOD3; Sequence ID No. 2 (protein)
chain: ASTLTKQSQILIVGGGTWGCSTALHLARRGYTNVTVLDVNRIPSPISAGHDVNKLAGRLSTADSKGDDEDSIWKALSYAAAQGWLHDPVFQPFCHNTGSVVAGSTPKSIKQLVEDEIGDDIDQYTPLNTAEDFRKTMPEGILTGNFPGWKGFYKPTGSGWVHARKAMKAAFEESERLGVKFITGSPEGKVESLIFEDGDVRGAKTADGKEHRADRTILSAGASAEFFLDFENQIQPTAWTLGHIQMTPEETKLYKNLPPLFNINQGFFMEPDEDLHQLKMCDEHPGYCNWVEKPGSKYPQSIPFAKHQVPTEAERRMKQFLKDIMPQLADRPLVHARICWCADTQDRMFLITYHPRHPSLVIASGDCGTGYWHITSIGKFISDCMEGTLEERFAKFWRWRPEKFTEFWGKDPLDRFGADDKIMDLPKSDVEGWTNIKNDI
modifications: sequence derived from Fusarium oxysporum IFO- 9722
40 mM Tris-HCl buffer solution (pH 7.5)
  Optimum temperature (maximum activity): 50 °C
100 mM buffers pH 4.4-10.3
  Optimum pH (maximum activity): 7.5
[1]
  Isoelectric point: 4.3±0.2
[2]
  Substrate specificity ZFL: 100%
[2]; glycated lysine / glycated valine
  Reactivity ratio, glycated lysine / glycated valine: 2980
[3]
  Substrate specificity FV: 0%
